Like-named read-outs stand apart in the source and are kept apart here.
T1: human small heat shock protein HspB6, wild type (human), O14558
T1 chain: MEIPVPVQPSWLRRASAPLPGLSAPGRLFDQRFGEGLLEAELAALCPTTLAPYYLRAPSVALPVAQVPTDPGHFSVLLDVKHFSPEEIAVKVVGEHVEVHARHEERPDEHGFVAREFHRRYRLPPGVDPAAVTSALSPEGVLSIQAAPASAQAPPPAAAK

T2: human small heat shock protein HspB8, wild type (human), Q9UJY1
T2 chain: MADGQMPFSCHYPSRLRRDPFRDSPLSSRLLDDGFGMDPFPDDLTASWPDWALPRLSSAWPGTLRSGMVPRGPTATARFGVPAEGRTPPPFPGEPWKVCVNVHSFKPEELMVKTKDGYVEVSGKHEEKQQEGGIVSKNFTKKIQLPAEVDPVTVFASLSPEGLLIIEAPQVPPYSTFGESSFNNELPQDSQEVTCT


Tests used:
[1] = target: the molecule itself; experiment: SEC; Superdex 200 HR 10/30; 20 mM Tris/acetate pH 7.6, 150 mM NaCl, 0.1 mM EDTA, 0.1 mM PMSF, 15 mM beta-mercaptoethanol; 10-120 ug protein in 100 uL loaded; apparent mass from calibration, estimated number of subunits
[2] = target: T1, human small heat shock protein HspB6, …; experiment: as above; details: remark: other sources report otherwise
[3] = target: T2, human small heat shock protein HspB8, …; experiment: as above; details: remark: other sources report otherwise
[4] = target: T2, human small heat shock protein HspB8, …; experiment: SEC-SAXS; online SEC-SAXS, SWING beamline; Shodex KW404-4F; 20 mM HEPES, 150 mM NaCl, pH 7.4, 2.5 mM DTT; 5 mg/mL (230 uM) sample applied; mass from the volume of correlation; details: remark: other sources report otherwise
[5] = target: the molecule itself; experiment: SEC; Superdex 200 HR 10/30; 20 mM Tris/acetate pH 7.6, 150 mM NaCl, 0.1 mM EDTA, 0.1 mM PMSF, 15 mM beta-mercaptoethanol; 10-120 ug protein in 100 uL loaded; apparent mass from calibration, estimated number of subunits; remark: listed apart in the source

Binder | stoichiometry N [1] [monomers] | other results
human small heat shock protein HspB5 (alphaB-crystallin), wild type (natural protein, UniProt P02511 1-175, looked up, HspB5 (alphaB-crystallin), human; UniProt P02511; Expressed from pET23b; The printed monomeric mass (20.2 kDa) fits the whole protein; also called αB-crystallin; wild type HspB5; source: E. coli BL21(DE3)pLysS, purified (ammonium sulfate fractionation, HiTrap Q HP, Superdex-200 SEC)) MDIAIHHPWIRRPFFPFHSPSRLFDQFFGEHLLESDLFPTSTSLSPFYLRPPSFLRAPSWFDTGLSEMRLEKDRFSVNLDVKHFSPEELKVKVLGDVIEVHGKHEERQDEHGFISREFHRKYRIPADVDPLTITSSLSSDGVLTVNGPRKQVSGPERTIPITREEKPAVTAAPKK | ~27 | 
R22A mutant of human HspB5 (natural protein, UniProt P02511 1-175, looked up, HspB5 (alphaB-crystallin), human; UniProt P02511; Arg22 of the RLFDQxFG motif replaced by Ala; Expressed from pET23b; also called R22A HspB5; source: E. coli BL21(DE3)pLysS, purified (ammonium sulfate fractionation, HiTrap Q HP, Superdex-200 SEC)) MDIAIHHPWIRRPFFPFHSPSALFDQFFGEHLLESDLFPTSTSLSPFYLRPPSFLRAPSWFDTGLSEMRLEKDRFSVNLDVKHFSPEELKVKVLGDVIEVHGKHEERQDEHGFISREFHRKYRIPADVDPLTITSSLSSDGVLTVNGPRKQVSGPERTIPITREEKPAVTAAPKK | ~23 | 
human small heat shock protein HspB6, wild type, O14558 1-160 (natural protein) MEIPVPVQPSWLRRASAPLPGLSAPGRLFDQRFGEGLLEAELAALCPTTLAPYYLRAPSVALPVAQVPTDPGHFSVLLDVKHFSPEEIAVKVVGEHVEVHARHEERPDEHGFVAREFHRRYRLPPGVDPAAVTSALSPEGVLSIQAAPASAQAPPPAAAK |  | stoichiometry N [2]: 3 monomers
R27A mutant of human HspB6 (natural protein, UniProt O14558 1-160, looked up, HspB6, human; UniProt O14558; Arg27 of the RLFDQxFG motif replaced by Ala; Expressed from pET23b; also called R27A HspB6; R27A mutant of HspB6) MEIPVPVQPSWLRRASAPLPGLSAPGALFDQRFGEGLLEAELAALCPTTLAPYYLRAPSVALPVAQVPTDPGHFSVLLDVKHFSPEEIAVKVVGEHVEVHARHEERPDEHGFVAREFHRRYRLPPGVDPAAVTSALSPEGVLSIQAAPASAQAPPPAAAK | ~3 | 
R21A mutant of human HspB4 (natural protein, UniProt P02489 1-173, looked up) MDVTIQHPWFKRTLGPFYPSALFDQFFGEGLFEYDLLPFLSSTISPYYRQSLFRTVLDSGISEVRSDRDKFVIFLDVKHFSPEDLTVKVQDDFVEIHGKHNERQDDHGYISREFHRRYRLPSNVDQSALSCSLSADGMLTFCGPKIQTGLDATHAERAIPVSREEKPTSAPSS | ~30 | 
human small heat shock protein HspB8, wild type, Q9UJY1 1-196 (natural protein) MADGQMPFSCHYPSRLRRDPFRDSPLSSRLLDDGFGMDPFPDDLTASWPDWALPRLSSAWPGTLRSGMVPRGPTATARFGVPAEGRTPPPFPGEPWKVCVNVHSFKPEELMVKTKDGYVEVSGKHEEKQQEGGIVSKNFTKKIQLPAEVDPVTVFASLSPEGLLIIEAPQVPPYSTFGESSFNNELPQDSQEVTCT |  | stoichiometry N [3]: 2 monomers; stoichiometry N [4]: 2 monomers
R29A mutant of human HspB8 (natural protein, UniProt Q9UJY1 1-196, looked up, HspB8, human; UniProt Q9UJY1; Arg29 of the RLFDQxFG motif replaced by Ala; Expressed from pET23b; also called R29A HspB8; source: E. coli BL21(DE3)pLysS, purified (ammonium sulfate fractionation, HiTrap Phenyl Sepharose, Superdex-200 SEC)) MADGQMPFSCHYPSRLRRDPFRDSPLSSALLDDGFGMDPFPDDLTASWPDWALPRLSSAWPGTLRSGMVPRGPTATARFGVPAEGRTPPPFPGEPWKVCVNVHSFKPEELMVKTKDGYVEVSGKHEEKQQEGGIVSKNFTKKIQLPAEVDPVTVFASLSPEGLLIIEAPQVPPYSTFGESSFNNELPQDSQEVTCT | ~3 | stoichiometry N [5]: 4 monomers

— paper PMC6073470 (International Journal of Molecular Sciences, 2018)
